Data published in paper PMC8580143.

What was measured:
[1] = biological target: endogenous rat PP1γ (rat (endogenous in primary hippocampal neurons)) (UniProt P63088); experiment: proximity ligation; PLA in fixed primary rat hippocampal neurons with Tau7 and a PP1γ-specific antibody; puncta per area of Tau12 staining; n = 3; untransduced neurons for endogenous tau; set-up: unit not given here
[2] = biological target: endogenous rat PP1 (detected with an antibody that recognizes all PP1 isoforms) (rat (endogenous in primary hippocampal neurons)) (UniProt P62138); experiment: proximity ligation; PLA in fixed primary rat hippocampal neurons (DIV 8) with Tau7 and a pan-PP1 antibody; puncta per area of Tau12 (human tau) staining; n = 3; untransduced neurons for endogenous tau; set-up: unit not given here
UniProt P62138, sequence (P62138 whole entry, canonical isoform): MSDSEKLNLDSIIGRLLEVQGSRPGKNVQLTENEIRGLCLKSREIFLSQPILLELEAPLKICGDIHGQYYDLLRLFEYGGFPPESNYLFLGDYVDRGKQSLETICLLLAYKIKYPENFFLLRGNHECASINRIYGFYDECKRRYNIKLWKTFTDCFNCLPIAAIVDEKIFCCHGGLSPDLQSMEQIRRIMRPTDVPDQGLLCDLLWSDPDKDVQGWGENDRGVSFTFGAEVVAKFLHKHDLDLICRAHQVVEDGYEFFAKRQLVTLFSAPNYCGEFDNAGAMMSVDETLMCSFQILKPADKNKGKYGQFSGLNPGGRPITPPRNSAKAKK

UniProt P63088, sequence (P63088 whole entry, canonical isoform): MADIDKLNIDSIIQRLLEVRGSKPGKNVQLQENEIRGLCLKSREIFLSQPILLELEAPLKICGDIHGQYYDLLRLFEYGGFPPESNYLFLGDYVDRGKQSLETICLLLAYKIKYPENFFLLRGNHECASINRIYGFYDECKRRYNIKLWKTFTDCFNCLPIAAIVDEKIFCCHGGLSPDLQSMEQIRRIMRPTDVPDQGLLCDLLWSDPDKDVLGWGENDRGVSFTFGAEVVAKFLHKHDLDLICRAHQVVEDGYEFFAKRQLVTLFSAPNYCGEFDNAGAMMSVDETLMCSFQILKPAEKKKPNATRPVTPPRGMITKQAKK

| Substance | PLA puncta per area of Tau12 staining [1] | PLA puncta per area of Tau12 staining [2] |
| --- | --- | --- |
| wild-type human tau (C-terminally FLAG-tagged) expressed by lentivirus in rat hippocampal neurons (natural protein) | 11.3 | 23.1 |
| P301L mutant human tau (C-terminally FLAG-tagged) expressed by lentivirus in rat hippocampal neurons (natural protein) | 28 | 67.3 |
| R5L mutant human tau (C-terminally FLAG-tagged) expressed by lentivirus in rat hippocampal neurons (natural protein) | 16.2 | 31.3 |
